Data reported in patent US7067473.

Legend:
[1] = molecular target: recombinant enovin (mature Enovin with NH2-terminal 6x His-tag, expressed from hEVNmat/pRSETB in E. coli BL21(DE3), refolded) (human); assay: SPR (BIAcore 3000, 25 °C), enovin immobilised, soluble GFRα3-Fc as analyte; KD calculated as kd/ka
[2] = molecular target: recombinant enovin (mature Enovin with NH2-terminal 6x His-tag, expressed from hEVNmat/pRSETB in E. coli BL21(DE3), refolded) (human); assay: SPR (BIAcore 3000, 25 °C), enovin immobilised, soluble GFRα3-Fc as analyte, three concentrations

Kd [1]: 3.1 nM
koff [2]: 0.000508 s⁻¹
kon [2]: 165000 M⁻¹ s⁻¹
B1: soluble GFRα-3 IgG-Fc fusion protein (GFRα-3 amino acids 28 to 371 fused to human IgG1-Fc) (Fc fusion, UniProt O60609 28-371, looked up, not shown: a dimerising Fc or GST)
chain: LAAGDPLPTESRLMNSCLQARRKCQADPTCSAAYHHLDSCTSSISTPLPSEEPSVPADCLEAAQQLRNSSLIGCMCHRRMKNQVACLDIYWTVHRARSLGNYELDVSPYEDTVTSKPWKMNLSKLNMLKPDSDLCLKFAMLCTLNDKCDRLRKAYGEACSGPHCQRHVCLRQLLTFFEKAAEPHAQGLLLCPCAPNDRGCGERRRNTIAPNCALPPVAPNCLELRRLCFSDPLCRSRLVDFQTHCHPMDILGTCATEQSRCLRAYLGLIGTAMTPNFVSNVNTSVALSCTCRGSGNLQEECEMLEGFFSHNPCLTEAIAAKMRFHSQLFSQDWPHPTFAVMAHQ
